Results on one molecule are retold here after publication PMC9284284.

This data set has as its target T1, TCP4 DNA-binding domain (Arabidopsis thaliana, UniProt Q8LPR5 45-103).
T1 sequence: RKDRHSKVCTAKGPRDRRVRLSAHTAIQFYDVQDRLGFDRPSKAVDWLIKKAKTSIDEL
Description: EMSA. In general terms: A gel shift assay detects complexes by their altered migration in electrophoresis.

B1: SOC1-DNA (dsDNA)
DNA 1: TAATTAGTTTGTGTGGTCCTCCTCCCGATA
DNA 2: TATCGGGAGGAGGACCACACAAACTAATTA
With B1, the binding result was “binds”.
